{
  "source": "patent US20190367636A1",
  "about": "(Bayer, published 2019)",
  "binders": {"B1": {"name": "BAY1213790 (antibody, human IgG1, kappa, V domains shown)", "VH": "EVQLLESGGGLVQPGGSLRLSCAASGFTFSQYGMDWVRQAPGKGLEWVSGIGPSGGSTVYADSVKGRFTISRDNSKNTLYLQMNSLRAEDTAVYYCTRGGPYYYYGMDVWGQGTTVTVSS", "VL": "DIQMTQSPSSLSASVGDRVTITCQASQDISNYLNWYQQKPGKAPKLLIYDASNLETGVPSRFSGSGSGTDFTFTISSLQPEDIATYYCQQADSFPVTFGGGTKVEIKR", "notes": "Human monoclonal IgG; also called anti-FXIa antibody; anti-hFXIa monoclonal antibody"}},
  "key": {"[1]": {"target": "T1, activated human coagulation factor XI (hFXIa) (human, UniProt P03951 19-625, limits assumed)", "experiment": "cell-based or functional assay"}, "[2]": {"target": "T1, activated human coagulation factor XI …", "experiment": "ELISA, lyophilized formulation after 36 months at 2-8 C, relative to BAY 1213790 reference standard"}, "[3]": {"target": "T1, activated human coagulation factor XI …", "experiment": "SPR (Biacore), binding of lyophilized formulation test sample at t0 to human FXIa, relative to BAY 1213790 reference standard", "description": "The binding of the BAY 1213790 test sample and of the BAY 1213790 reference standard to human factor XIa (FXIa) antigen is determined by surface plasmon resonance spectroscopy (SPR, Biacore). The binding affinity of the test sample is compared to the BAY 1213790 reference standard."}},
  "data": [
    {"binder": "B1", "values": [
      {"measurement": "Activity relative to reference (Bioassay), t0", "setting": "[1]", "result": 104, "unit": "%"},
      {"measurement": "Activity relative to reference (Bioassay), t = 36 months at 2-8 C", "setting": "[1]", "result": 101, "unit": "%"},
      {"measurement": "Activity relative to reference (ELISA)", "setting": "[2]", "result": 104, "unit": "%"},
      {"measurement": "Activity relative to reference (Biacore)", "setting": "[3]", "result": 108, "unit": "%"}
    ]}
  ]
}
